Measured values: patent US20050271676A1, “Inducing cellular immune responses to human immunodeficiency virus-1 using peptide and nucleic acid compositions” (Epimmune Inc., priority 1993, published 2005)
No end group written: not given here.

Key:
[1] = target: T1, HLA-DRB1*0701 (DR7) (Homo sapiens, UniProt P01903+P01911, A100R/A102G/A103Q/D57E/D86V/E43K/F76Y/K127E/L162R/M171V/P40G/Q125H/Q99D/R33Q/R42Y/R54Q/S133A/S66F/T210M/V115G/Y107V/Y59L/Y89S); test: biochemical; assay type: binding
T1 construct: endogenous in cells; host or cells: Pitout

[2] = target: T2, HLA-DRB1*0802 (DR8w2) (Homo sapiens, UniProt P01903+P01911, A100R/A103L/A169T/F76Y/H45Y/I96F/K41T/L162R/M171V/P40S/Q125H/Q178H/Q39Y/Q99D/R218S/R42G/S66Y/V115G/W38E); test: biochemical; assay type: binding
T2 construct: endogenous in cells

[3] = target: HLA-DRB1*1302 (DR6w19) (Homo sapiens, UniProt P01903+P01911, A100E/A169T/K41T/L162R/M171V/P40S/Q125H/Q178H/Q39Y/Q99D/R42S/S66N/T262R/V115G/W38E/Y61H); test: purified HLA class II binding assay, DRB1*1302 (DR6w19); details: for DR6w19 binding information: Table XXb, HIV DR 3a motif peptides
[4] = target: T3, HLA-DRB1*0301 (DR3) (Homo sapiens, UniProt P01903+P01911, A100K/A102G/A103R/A169T/F55Y/I96L/K41T/L162R/M171V/P40S/Q125H/Q178H/Q39Y/R42S/S66N/T106N/T262R/W38E/Y61H); test: purified HLA class II binding assay, DRB1*0301 (DR3), pH 4.5; details: for DR3 binding information: Table XXb, HIV DR 3a motif peptides
T3 construct: endogenous in cells; host or cells: MAT

[5] = target: HLA-A*0201 (Homo sapiens, UniProt P04439, D140Y/D185E/D98H/E176V/E277Q/G131W/G231S/I119V/I121R/I166T/I218V/L300P/L318F/N151K/N90K/P208A/P217A/Q86G/Q94H/R138H/R169H/T345S); test: purified HLA class I binding assay, A*0201; details: for A*0201 (binding information): Table VIII
[6] = target: HLA-A*0206 (Homo sapiens, UniProt P04439, D140Y/D185E/D98H/E176V/E277Q/F33Y/G131W/G231S/I119V/I121R/I166T/I218V/L300P/L318F/N151K/N90K/P208A/P217A/Q86G/Q94H/R138H/R169H/T345S); test: purified HLA class I binding assay, A*0206
[7] = target: HLA-A*0203 (Homo sapiens, UniProt P04439, A173T/D140Y/D185E/D98H/E277Q/G131W/G231S/I119V/I121R/I166T/I218V/L180W/L300P/L318F/N151K/N90K/P208A/P217A/Q86G/Q94H/R138H/R169H/T345S); test: purified HLA class I binding assay, A*0203
[8] = target: HLA-A*0202 (Homo sapiens, UniProt P04439, D140Y/D185E/D98H/E176V/E277Q/G131W/G231S/I119L/I121R/I166T/I218V/L180W/L300P/L318F/N151K/N90K/P208A/P217A/Q67R/Q86G/Q94H/R138H/R169H/T345S); test: purified HLA class I binding assay, A*0202
[9] = target: HLA-A*6802 (Homo sapiens, UniProt P04439, A269V/D140Y/D185E/E176V/E277Q/E87N/F33Y/G231S/I121R/I166T/I218V/L180W/L300P/L318F/N151K/P208A/P217A/Q86R/R138H/R169H/S129P/T345S/V36M); test: purified HLA class I binding assay, A*6802
[10] = Table VIII, HIV A02 Super Motif Peptides with Binding Information, unit not given

T3 sequence (P01903 26-254 partner, other chains not shown): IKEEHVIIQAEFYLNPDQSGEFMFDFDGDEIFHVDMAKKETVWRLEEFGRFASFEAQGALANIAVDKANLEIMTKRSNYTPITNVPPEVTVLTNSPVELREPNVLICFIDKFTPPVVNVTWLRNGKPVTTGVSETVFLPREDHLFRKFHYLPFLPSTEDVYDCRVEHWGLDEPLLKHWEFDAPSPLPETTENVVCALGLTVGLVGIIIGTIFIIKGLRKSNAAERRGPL

## FSPEVIPMF
[1]
  DR7 binding information: 0.0023

## FYVDGAANR
[2]
  DR8w2 binding information: 0.0035
[3]
  DR6w19 binding information: −0.0002
[1]
  DR7 binding information: −0.0014

## GAVVIQDNSDLKVVP [Peptide 35.0133]
[4]
  IC50: 1000 nM

## IDPENPYNT
[1]
  DR7 binding information: −0.0005

## IKQEFGIPY
[2]
  DR8w2 binding information: −0.0009
[3]
  DR6w19 binding information: 0.0123
[1]
  DR7 binding information: −0.0014

## ILRQRKTDR
[2]
  DR8w2 binding information: 0.0270
[3]; Table XXd, HIV DR 3b motif peptides
  DRw619 binding information: 0.0016
[1]
  DR7 binding information: −0.0014

## IVTDSQYAL
[5]; HIV A02 super motif peptides, unit not given
  A*0201 (binding information): 0.0024
[2]
  DR8w2 binding information: −0.0009
[3]
  DR6w19 binding information: 0.0108
[1]
  DR7 binding information: −0.0014

## KCQLKOEAMHGQVDC (KCQLKGEAMHGQVDC; HUMAN IMMUNO… VIRUS)
[4]
  DR3 binding information: −0.0017

## KLNWASQIYA [25.0161]
[6]
  IC50: 6170 nM
[7]
  IC50: 400 nM
[8]
  IC50: 3910 nM

## LIFGWCFKLV
[6]; [10]
  A*0206 binding information: 0.0640
[5]; HIV A02 Super Motif Peptides with Binding Information, unit not given
  A*0201 (binding information): 0.0170
[7]; [10]
  A*0203 binding information: 0.0540
[9]; [10]
  A*6802 binding information: 6.5000
[8]; [10]
  A*0202 binding information: 0.0880

## LLWKGEGAVV [1069.33]
[6]
  IC50: 771 nM
[7]
  IC50: 25 nM
[8]
  IC50: 632 nM

## LVEICTEMEKECKIS
[4]
  DR3 binding information: −0.0017

## VAKEIVASC
[1]
  DR7 binding information: 0.0015

## VIQGNSDIK
[2]
  DR8w2 binding information: −0.0009
[3]
  DR6w19 binding information: 0.0447
[1]
  DR7 binding information: −0.0014

## VLAEAMSQV
[5]; purified HLA-A*0201, unit not given
  A*0201 binding (HIV A02 Super Motif Peptides with Binding Information): 0.1100
[1]
  DR7 binding information: 0.0025

## VVEEKAFSP
[1]
  DR7 binding information: 0.0003

## WAGIKQEFGIPYNPQ [Peptide 35.0131]
[4]
  IC50: 300 nM

## WMTNNPPIPV [25.0139]
[5]
  IC50: 98 nM
[7]
  IC50: 16.9 nM
[9]
  IC50: 2220 nM
[8]
  IC50: 3070 nM
